The DeepSol protein solubility set

Experiment: soluble on expression in E. coli; label from the status in PepcDB or PDB records

Sequence	soluble on expression in E. coli
GHHHHHHMTTQLEQAWELAKQRFAAVGIDVEEALRQLDRLPVSMHCWQGDDVSGFENPEGSLTGGIQATGNYPGKARNASELRADLEQAMRLIPGPKRLNLHAIYLESDTPVSRDQIKPEHFKNWVEWAKANQLGLDFNPSCFSHPLSADGFTLSHADDSIRQFWIDHCKASRRVSAYFGEQLGTPSVMNIWIPDGMKDITVDRLAPRQRLLAALDEVISEKLNPAHHIDAVESKLFGIGAESYTVGSNEFYMGYATSRQTALCLDAGHFHPTEVISDKISAAMLYVPQLLLHVSRPVRWDSDHVVLLDDETQAIASEIVRHDLFDRVHIGLDFFDASINRIAAWVIGTRNMKKALLRALLEPTAELRKLEAPGDYTARLALLEEQKSLPWQAVWEMYCQRHDTPAGSEWLESVRAYEKEILSRRG	soluble
GHLDDNVTQEDIQAMLQEGSSAGVIEHNEHAMVKNVFRLDERTISSLMVPRSDIVFLDLNLPLDANLRTVMQSPHSRFPVCRNNVDDMVGIISAKQLLSESIAGERLELVDLVKNCNFVPNSLSGMELLEHFRTTGSQMVFVVDEYGDLKGLVTLQDMMDALTGEFFQEDGS	soluble
GHMEVTLIVFHAGSLSVPFQEVEKEFSEYAERNLGIKVSFQDEASGSVMAVRKVTDLGRKADVIGVADYTLIPQLLIPNYTDFYVLFATNEIVIAFTDKSRYVEEMKSNPDKWYEILAREDVRFGFSDPNQDPCGYRSLMVIKLADLYYGKEIFKELIEENTNIYSNGTQIYAPKEITVNPGKIVIRPKETDLLGLVESGSIDYIFIYKSVAKQHNLSYITLPSEINLGDFSKEKFYGQISITLGSTGKTIKAKPIVYGVTVLKDAPNREVAIEFLRYLLSENGKRIFEKNHQDFL	soluble
GHMKIVLKIFHAGSLSVPFEEYEKMFEKEHPNVDVEREPAGSVACVRKIIDLGKKADILASADYSLIPQMMMPKYADWYVMFARNEIVLAYTDKSKYKDEINSTNWYKILQRPDVKIGFSNPNDDPCGYRTQMVLQLAELYYKDPTIYDNLVLKHSNIKVEENNGTYLILVPKELDVDTNKLFVRSKETDLLAPLEAGAFDYLFIYKSVANQHHLKYIELPKEINLGYYEYADTYKKVALKIIAKNKTINAKPIVYGMTVPTNAPHKKEAIEFVKFVLGHPEVLENNGQPAI	soluble
GHMREMLQVERPKLILDDGKRTDGRKPDELRSIKIELGVLKNADGSAIFEMGNTKAIAAVYGPKEMHPRHLSLPDRAVLRVRYHMTPFSTDERKNPAPSRREIELSKVIREALESAVLVELFPRTAIDVFTEILQADAGSRLVSLMAASLALADAGIPMRDLIAGVAVGKADGVIILDLNETEAMWGEADMPIAMMPSLNQVTLFQLNGSMTPDEFRQAFDLAVKGINIIYNLEREALKSKYVEFKEEGV	soluble
GIALVLIAAGLGLARLLLGPEVVAALVQRGNLVQTVVASGHIETPYRVEIASQITGTVKDVLVKEGEQVHQGQQLVAIEASELQASVVQAEGAVAQAQARVRQLRELTKPAADEALKQAQANLLNAQAAYERASKLAASGYGTKATLDDATKNLDVARTQVRTAELQVFTTSPGGSDFVMAETQLGQALANLNTAQARLGYATIVAPRDGVLITRNVERGTVVQPGKALLVLAPAGDIQIVVQIDEKNLGQLALGQHAMASADAYPDKRFDATLSYINPSVDINRASVEIKLKVDDPPDYLRQDMTVSVDIATARRDDVVIVPARAVNDAAAAPYVLKASGGRAVRQPVKLGLRGVGFYEVIDGLVPGDRVIPLATGVKPD	soluble
GIVNVPNPNNTKFQELARFAIQDYNKKQNAHLEFVENLNVKEQVVAGIMYYITLAATDDAGKKKIYKAKIWVKEWEDFKKVVEFKLV	soluble
GKAVIAIHGGAGAISRAQMSLQQELRYIEALSAIVETGQKMLEAGESALDVVTEAVRLLEECPLFNAGIGAVFTRDETHELDACVMDGNTLKAGAVAGVSHLRNPVLAARLVMEQSPHVMMIGEGAENFAFARGMERVSPEIFSTSLRYEQLLAARKEGATVLDHSGAPLDEKQKMGAVGAVALDLDGNLAAATSTGGMTNKLPGRVGDSPLVGAGCYANNASVAVSCTGTGEVFIRALAAYDIAALMDYGGLSLAEACERVVMEKLPALGGSGGLIAIDHEGNVALPFNTEGMYRAWGYAGDTPTTGIYREKGDTVATQ	soluble
GLDNELSLVDGQDRTLTVQQWDTFLNGVFPLDRNRLTREWFHSGRAKYIVAGPGADEFEGTLELGYQIGGPGIQEVATFSVDVSGAEGGVAVSNAHGTVTGAAGGVLLRPFARLIASTGDSVTTYGEPWNMN	soluble
GLETSSKKYSLGKTLGTGSFGIVCEVFDIESGKRFALKKVLQDPRYKNRELDIMKVLDHVNIIKLVDYFYTTGDEEPKPPQPPDDHNKLGGKNNGVNNHHKSVIVNPSQNKYLNVIMEYVPDTLHKVLKSFIRSGRSIPMNLISIYIYQLFRAVGFIHSLGICHRDIKPQNLLVNSKDNTLKLCDFGSAKKLIPSEPSVAYICSRFYRAPELMLGATEYTPSIDLWSIGCVFGELILGKPLFSGETSIDQLVRIIQIMGTPTKEQMIRMNPHYTEVRFPTLKAKDWRKILPEGTPSLAIDLLEQILRYEPDLRINPYEAMAHPFFDHLRNSYESEVKNNSNFPHGVNQNIPQLFNFSPYELSIIPGNVLNRILPKNFSPNYKH	soluble
GLFQFLRIVMRPSDQLLGLDEKGTIRTIDETGKASPIPGMVIYRFNSPLTYFNAPYFKRRLLEHAEQNKDVSCVVVDAVSSFTHLDLSVMATLADIHEVLKKRGIRLVLAGRKRRLRQWCELTGISTSEGGILLRADMYLAIKLSGSYLSAVGEGIVPTVQKEPDLEQPPKPIPEVA	not soluble
GLIDSHVHPVVGDYTPRQQQLHWIDSTLHGGVTTLISAGEVHMPGRPKDIVGLKAMAIAAQRWYENFRPSGVKVMAGAPVIEHGMVEQDFKELADAGVKLLGEVGLGTVKDGKTARQMVDWARKYGIQSTIHTGGPSIPGSGLIDADMVLETGTDVIGHINGGHSALPDDQIMCLCESCTAGLEIVHNGNERAALLTLNTARELKQMDRIILGTDGPAGSGVQPLGILRMVAMLSALGNVPAEIAFCFANGNTARQRELDTGLLERGYAADFVLMDQAQHAPGKTILESVQLGNLPGVGMTVIDGVVCSERSRNTPPATRLPRIVS	not soluble
GMDVTIERVNDFDGYNWLPLLAKSSQEGFQLVERMLRNRREESFQEDGEAMFVALSTTNQVLACGGYMKQSGQARTGRIRHVYVLPEARSHGIGTALLEKIMSEAFLTYDRLVLYSEQADPFYQGLGFQLVSGEKITHTLDKTAFADSNR	soluble
GMELKSAEEKSLYYRNKIKEVIDEVGKVVVGQKYMINRLLIGICTGGHILLEGVPGLAKTLSVNTLAKTMDLDFHRIQFTPDLLPSDLIGTMIYNQHKGNFEVKKGPVFSNFILADEVNRSPAKVQSALLECMQEKQVTIGDTTYPLDNPFLVLATQNPVEQEGTYPLPEAQVDRFMMKIHLTYLDKESELEVMRRVSNMNFNYQVQKIVSKNDVLEIRNEINKVTISESLEKYIIELVFATRFPAEYGLEAEASYILYGASTRAAINLNRVAKAMAFFNNRDYVLPEDIKEVAYDILNHRIILNYEAEAEGISTRQIIETILRKVNITKA	soluble
GMEYQLQQLASLTLVGIKETYENGRQAQQHIAGFWQRCYQEGVIADLQLKNNGDLAGILGLCIPELDGKMSYMIAVTGDNSADIAKYDVITLASSKYMVFEAQGAVPKAVQQKMEEVHHYIHQYQANTVKSAPFFELYQDGDTTSEKYITEIWMPVKG	soluble
GMFADNTLTPKEAVRLCALGTIASQPMRYSELAGSVRHFTSRIMGPSLELMGISIELLRYEGLVEAVDDGQGMEDDAMLAISAAGRRELHSLLTARLRPGSDLSKLVVALKMRFLGLMEAEERAHQIDLLIEGVDSELARLADLRGSDGEGGSALAAWLDHDMALLESRLAWLEDFRARL	soluble
GMGSSRKVIITCAVTGAIHTPSMSPYLPVTPDEVAQASIGAAEAGAAVIHLHARDPRDGRPTQDPAAFAEFLPRIKSNTDAVINLTTGGSPHMTVEERLRPATHYMPELASLNMGSMNFGLYPMLERFKEFAHGWEREHLERSRDLVFKNTFADIEFILKTCGGNGTRFEFECYDTSHLYNLAHFVDRKLATPPFFVQTVFGLLGGIGPHPEDLAHMRRTADRLFGADYVWSILGAGRHQIPLASIGAAQGANVRVGLEDSLWIAPGELAETNAAQVRKIRQVIEGLSLEVASPAEARTMLGLKGPQNVNF	soluble
GMHHQRKTHVDNNIAAVELAKAYRLLNHGPTVLVSARSQGIDNVMAAAWCCALDFAPPKLTVVLDKMTKTREFIEQSGMFVIQVPTVAQLQLTHRVGSQSLADDANKLLNCGVELFEMAGHDLPFVAGCSAWLACKLIPEPNNQLQYDLFIAEVIGAWADTQVFNHGHWHFDTAPADKRSLHYIAGGQFYAIGESFNAD	soluble
GMHSAALLQKVDELPRLPKAIAELLDVVNNEDSTVKAVSEKLSHDPVLSARVLRLANSARFGCSREVGTIDDAVVRLGMQTLRTLVIASAVVGAVPKVEGFDLADFWGNTFEVAIICQELAKRLGTLPEEAFTCGILHSIGELLIVNGDPAVAATISAAVADGADRNLMEKELLGYDNAEIGALLAQSWKFTPHLVKGIQFQNHPKSAEPYSKLAGMLAMAKQIAADWDKIPDDERTSWLAQINILAGIKVDLGGLAEKLAKMHGQGMEMGKQLA	soluble
GMKAADFTYVTVHGDNSRMSRLKAQYTMLFFYDPDCSNCRKFEKLFAEIPAFVEMVENGTLRVLAIYPDENREEWATKAVYMPQGWIVGWNKAGDIRTRQLYDIRATPTIYLLDGRKRVILKDTSMEQLIDYLATQAG	not soluble
GMLAETDEYMAGGKRPARVYRVVNGIAVLPVTGTLVHRLGGMRPFSGMTGYDGIVACLQQAMADSQVRGILLDIDSPGGQAAGAFDCADMIYRLRQQKPVWALCNDTACSAAMLLASACSRRLVTQTSRIGSIGVMMSHVSYAGHLAQAGVDITLIYAGAHKVDGNQFEALPAEVRQDMQQRIDAARRMFAEKVAMYTGLSVDAVTGTEAAVFEGQSGIEAGLADELINASD	not soluble
GMLFESINTGCLDGNDTPWMPFAPYSNDVMVKYFKIDPVRGETITLLKAPAGMEMPRHHHTGTVIVYTVQGSWRYKEHDWVAHAGSVVYETASTRHTPQSAYAEGPDIITFNIVAGELLYLDDKDNIIAVENWKTSMDRYLNYCKAHGIRPKDLSTFEG	soluble
GMNLDSYERTGLRVSLDLVNIATPGSRRGTPHTGGCVIEDLHDLLKDDPASVAQLGDDHVEGFVELARLLHTAIDALSNGQVATAATALNHLLRKHPATPELAQDPDGTWRLHHHPLDAELVPMWTAICAEGLAREIGHQNVRRFGICNAHRCDRVYFDTSRNGTRQYCSLACQNRVKAAAFRERRAT	soluble
GMNQRDVILDCEKKLLTAIQNNDVESLEVLLHDDLLFIIPSGETVTKETDIAAYSSGKIALRAVVPSDYIIRIIHDTVVVSVNIEIKGEYMEHTLDNTFRYLRVWKLFDGNWKVIAGSCTAIG	soluble
GMPTFNPELHAQTLNSERAYFVQPDADPAFTPHIGALVEMLTYARLTTLQAVEGLPEDQLWATAPGFANSIGTLLAHIAAVERVYHVLSFQGRDVTPEDDGAAYWGLTMGKEGTAPARLPTLDELRAELADARAETLRVFAAKDDAWLAEPLGPGWANQHWAWFHVMEDEVNHRGQLRLLRQVLAPEEGG	soluble
GMSESCILFFVKYPEPGKVKTRLGEVVGNDKAAMLYRHFVQDMLQGLARLHADLHICYVPGDADLPEKFKAWLGPQHMFAAQQGLDLGERMKHAMQKAFDDGYDRVVLMGSDIPDYPCELVQKALNDLQHYDAAIGPAFDGGYYLIGFRKDSFCPDVFDGIRWGEADVYQPTVEKMRRARLEVLQLPDWNDVDTVWDLNVLYRTNKNSSFRRSSTYALLRENDALIRQYDIDLPGMAPVEKE	soluble
